Source: patent US11421026B2, “Antibodies that bind human cannabinoid 1 (CB1) receptor” (BIRD ROCK BIO, Inc., priority 2015, dated 2022)

B1: PA13R3-P1C4: phage-derived chimeric anti-CB1 IgG; HC variable SEQ ID NO: 2, LC variable SEQ ID NO: 6 (antibody, V domains shown)
VH: EVQLQQSGAELVRPGVSVKISCKASGYEFSYYWMNWVKQRPGQGLEWIGQIYPGDGETKYNGKFKGKATLTADKSSNTAYMQLSSLTSEDSAVYFCARSHGNYLPYWGQGTLVTVSA
VL: DIVLTQSPAIMSASLGERVTMTCTASSSVSSSYLHWYQQKPGSSPKLWIYSTSNLASGVPARFSGSGSGTSYSLTISSMEAEDAATYYCHQYHRSPPTFGAGTKLELK
modifications: PA13R3-P1C4 Heavy chain variable region; PA13R3-P1C4 Light chain variable region
B2: PA13R3-P1C4 Fab: Fab fragment of chimeric PA13R3-P1C4 (antibody, V domains shown)
VH: B1 VH
VL: B1 VL
B3: 36E12B6C2: hybridoma-derived anti-CB1 mAb; HC variable SEQ ID NO: 18, LC variable SEQ ID NO: 22 (antibody, listed as Mus sp., V domains shown)
VH: QVQLQQSGAELVRPGSSVKISCKASGYEFSYYWMNWVKQRPGQGLQWIGQIYPGDGDTNYNGKFKGKATLTADKSSSTAYMHLTSLTSEDSAVYFCARSGGNPFAFWGQGTLVTVSA
VL: DIQMTQTSSSLSASLGDRVTFSCRASQDISNYLNWYQQKPDGTVKLLIYYTSRLHSGVTSRFRGSGSGTDYSLTISNLEQEDVATYFCQQGHTLPWSFGGGTKLEIK

Key:
[1] = test system: TRex CHO A56 over-expressed CB1 (CB1 T210A/fusion partner); test: Flow cytometry (FACS) binding to over-expressed CB1 cells; parameters: species or system human
Experimental: (§1) TRex CHO parental cells, TRex CHO A56 over-expressed CB1 (CB1 T210A/fusion partner), and Native human CB1 TRex CHO A156 were harvested from flasks. 100 μl of 1×10^6 cells/ml of cells were incubated with primary antibody IgGs. Secondary Antibody PE conjugated anti-human and anti-mouse was diluted in 1:200 folds. Anti-Human Fab FITC was diluted in 1:32 folds. Cells were washed with 200 μl of FACS buffer twice and transferred to BD 5 ml Falcon tube and analyzed by flow cytometry. Binding of purified IgG was initially tested at concentrations of 30 nM and 300 nM.
(§2) To further assess TRex CHO parental cells, TRex CHO A56 overexpressed CB1, Native human CB1 TRex CHO A156, 5HT2B, Mouse CB1 and human CB2 were used to examine the specificity of IgG binding. 100 μl of 1×10^6 cells/ml of cells were incubated with primary antibody IgGs in 3-fold serial dilutions starting from 1 μM to 0.5 nM for 30 minutes on ice. After being washed with 200 μl of FACS buffer twice, cells were incubated with secondary antibody for 30 minutes on ice. Cells were washed with 200 μl of FACS buffer twice and transferred to BD Falcon 5 ml tube and analyzed by FACS.
(§3) For selected binders, full binding curves were generated on CB1 receptor by testing a range of concentrations. Three-fold serial dilutions from 1 μM to […] were prepared. Selectivity was determined by measuring binding to cells expressing 5HT2B or CB2, relative to binding to A156 (native human CB1 receptor expressing) or A56 (overexpressed—CB1 receptor with the T210A modification and ICL3 replacement with fusion partner) by flow cytometry. […]
(§4) The binding affinity, cross-reactivity and specificity of humanized P1C4 antibodies were determined by flow cytometry with TRex CHO parental cells, TRex CHO A56 overexpressed CB1 cells (T210A/fusion partner), native human CB1 TRex CHO A156 cells, Trex parental (no CB1) cells, mouse CB1 cells, and human CB2 stable cells. […] Cells were washed with 200 μl of FACS buffer twice and transferred to BD Falcon 5 ml tube and analyzed by flow cytometry (BD FACScalibur).

[2] = molecular target: T1, human CB2 (TRex CHO cells) (Homo sapiens, UniProt P34972); test: Flow cytometry selectivity versus human CB2; type: binding
T1 construct: expressed in transfected cells
Experimental: as §2
(§5) Santa Cruz anti-CB1 rabbit polyclonal antibody and secondary antibody FITC conjugated anti-rabbit were used to detect the expression of mouse CB1. R&D mouse monoclonal anti-CB2 and human IgG P2C2 were used to confirm the expression of CB2 and 5HT2B respectively. Both anti-mouse and anti-human secondary antibodies were PE-conjugated.
For selected binders, full binding curves were generated on CB1 receptor by testing a range of concentrations. Three-fold serial dilutions from 1 μM to […] were prepared. Selectivity was determined by measuring binding to cells expressing 5HT2B or CB2, relative to binding to A156 (native human CB1 receptor expressing) or A56 (overexpressed—CB1 receptor with the T210A modification and ICL3 replacement with fusion partner) by flow cytometry. As shown in FIG. 2C and FIG. 2D, the expression of CB2 and 5HT2B was confirmed using mouse monoclonal anti-CB2 and P2C2 human IgG to confirm CB2 and 5HT2B expression, respectively. PE-conjugated anti-mouse (for detection of anti-CB2) and PE conjugated anti-human antibodies were used to detect CB2 and 5HT2B, respectively.
(§6) The binding affinity, cross-reactivity and specificity of humanized P1C4 antibodies were determined by flow cytometry with TRex CHO parental cells, TRex CHO A56 overexpressed CB1 cells (T210A/fusion partner), native human CB1 TRex CHO A156 cells, Trex parental (no CB1) cells, mouse CB1 cells, and human CB2 stable cells. […] After being washed with 200 μl of FACS buffer twice, cells were incubated with PE conjugated anti-human secondary antibody (Southern Biotech) for 30 minutes on ice. Cells were washed with 200 μl of FACS buffer twice and transferred to BD Falcon 5 ml tube and analyzed by flow cytometry (BD FACScalibur).
Binding selectivity and cross-reactivity of PA13R3-P1C4 and its humanized variants was also characterized by flow cytometry using TRex CHO cells stably transfected with the GPCRs of interest. Specifically, binding selectivity for CB1 over CB2 was determined. Cross reactivity to mouse CB1 was also determined. […] Cells were washed with 200 μL FACS buffer twice and analyzed by flow cytometry (Guava). Binding of purified IgG full concentration curves ranging from 1 μM to 1.3 nM was determined. […]

[3] = molecular target: T2, Native human CB1 TRex CHO A156 (Homo sapiens, UniProt P21554); test: Flow cytometry (FACS) binding to native human CB1 cells
T2 construct: pcDNA4/TO native full length human CB1 receptor construct was transfected into tetracycline inducible system Trex-CHO cells; expressed in transfected cells
Experimental: as §1, §2, §3, §4

[4] = molecular target: T3, Mouse CB1 (TRex CHO cells) (Mus musculus, UniProt P47746); test: Flow cytometry cross-reactivity to mouse CB1; type: binding
T3 construct: expressed in transfected cells
Experimental: as §2, §5, §6
Binding selectivity and cross-reactivity of PA13R3-P1C4 and its humanized variants was also characterized by flow cytometry using TRex CHO cells stably transfected with the GPCRs of interest. Specifically, binding selectivity for CB1 over CB2 was determined. Cross reactivity to mouse CB1 was also determined. For detecting expression of mouse CB1, 100 μL of 1×10^6 cells/mL of cells were incubated with anti-CB1 rabbit polyclonal antibody (Santa Cruz) at 1 μg/100 μL on ice for 30 min. Mouse monoclonal anti-CB2 antibody from R&D Systems was used to confirm the expression of CB2. 100 μL of 1×10^6 cells/mL of cells were incubated with anti-CB2 antibody at 0.5 μg/100 μL on ice for 30 minutes. After incubation, cells were then centrifuged at 4° C. at 1600 rpm for 3 minutes; supernatant was aspirated and cells were washed with 200 μL FACS buffer. The procedure was repeated twice. […] Cells were washed with 200 μL FACS buffer twice and analyzed by flow cytometry (Guava). Binding of purified IgG full concentration curves ranging from 1 μM to 1.3 nM was determined. […]

[5] = molecular target: A138 iCAPS (human CB1, ICL3 replaced with protein 1 sequence); test: ELISA binding of IgG/Fab to CB1 iCAPS A138; details: IgG and Fab ELISA, Table 8
Experimental: Purified IgG was tested for binding to purified CB1 receptor (CB1 Conformation Antigen Presenting System (iCAPS)) by ELISA. Non-biotinylated antigens (e.g. empty iCAPS) were coated directly on Maxisorp plates. The primary antibodies were purified IgGs with 1:3 serial dilutions, incubated on the plate for 1 hour. After 3 rounds of washing with PBST, secondary antibodies HRP goat anti-mouse IgG (Abmart) or HRP goat anti-human IgG (Sigma), depending on the species of the IgGs were added and incubated for another hour. The plates were washed three times with PBST, then developed with TMB (Biopanda). HCl was added to the plates to stop the reaction. Absorbance at 450 nm was read on Emax precision microplate reader (Molecular Devices).
IgG and Fab molecules tested were 36E12B6C2 IgG, 36E12B6C2 Fab, PA13R3-P1C4 IgG, and PA13R3-P1C4 Fab, compared to negative control BRIL binder P1F7 IgG and P1F7 Fab. For IgG antibodies, the secondary antibody used to detect binding was anti-mouse IgG-HRP; for Fabs, the secondary antibody used to detect binding was anti-human IgG-HRP.

Row | Molecule | binding to A56 (in words) [1] | cross-activity with human CB2 [2] | Kd TRexCHO Human CB2 ([2]; Table 10) | binding to A156 (in words) [3] | cross-activity with Mouse CB1 [4] | Kd TRexCHO Mouse CB1 ([4]; Table 10) | EC50 [5] [nM]
1 | B1 | bind to both A56 and A156 | do not have cross-activity | No binding | bind to both A56 and A156 | do not have cross-activity | No binding | 0.17
2 | B2 | bind to both A56 and A156 | do not have cross-activity | – | bind to both A56 and A156 | do not have cross-activity | – | 0.23
3 | B3 | bind to both A56 and A156 | do not have cross-activity | – | bind to both A56 and A156 | do not have cross-activity | – | 0.201
